Source: patent US20200262877A1, “ION CHANNEL-BINDING PEPTIDES AND METHODS OF USE THEREOF” (priority 2017, published 2020)

How the values were obtained:
[1] = biological target: T1, α4β2 (Homo sapiens, UniProt P17787+P43681); test: Ion channel panel (IonWorks Barracuda): α4β2; type: cell-based; details: 100% = no change, <100% = inhibition
T1 construct: host or cells: HEK293 or CHO
Outline: (§1)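 Transfected HEK293 or CHO cells were exposed for at least 5 min to peptides at 200 nM and 20 μM final, tested in duplicate, in HEPES-buffered physiological saline. Activation was taken as peptide-plus-agonist current over control current ×100, and inhibition as 1 minus that ratio ×100. Each channel's control was its own reference compound.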

[2] = biological target: T2, TRPV1 (Homo sapiens, UniProt Q8NER1); test: Ion channel panel (IonWorks Barracuda): TRPV1; type: cell-based; details: 100% = no change, <100% = inhibition
T2 construct: host or cells: HEK293 or CHO
Outline: as §1

[3] = biological target: T3, NR2A (Homo sapiens, UniProt Q12879); test: Ion channel panel (IonWorks Barracuda): NR2A; type: cell-based; details: 100% = no change, <100% = inhibition
T3 construct: host or cells: HEK293 or CHO
Outline: as §1

[4] = biological target: T4, TRPA1 (Homo sapiens, UniProt O75762); test: Ion channel panel (IonWorks Barracuda): TRPA1; type: cell-based; details: 100% = no change, <100% = inhibition
T4 construct: host or cells: HEK293 or CHO
Outline: as §1

[5] = biological target: hERG (Homo sapiens, UniProt Q12809); test: in vitro; details: 100% = no change, <100% = inhibition
Outline: as §1

[6] = biological target: Nav1.5 (Homo sapiens, UniProt Q14524); test: in vitro; details: 100% = no change; for Activity of Nav1.5 with peptide, expressed as a percentage of the reference compound: peptide at 0.2 μM; for Activity of Nav1.5 with peptide (percentage of the reference compound): peptide at 20 μM
Chain of Nav1.5 (Q14524 whole entry): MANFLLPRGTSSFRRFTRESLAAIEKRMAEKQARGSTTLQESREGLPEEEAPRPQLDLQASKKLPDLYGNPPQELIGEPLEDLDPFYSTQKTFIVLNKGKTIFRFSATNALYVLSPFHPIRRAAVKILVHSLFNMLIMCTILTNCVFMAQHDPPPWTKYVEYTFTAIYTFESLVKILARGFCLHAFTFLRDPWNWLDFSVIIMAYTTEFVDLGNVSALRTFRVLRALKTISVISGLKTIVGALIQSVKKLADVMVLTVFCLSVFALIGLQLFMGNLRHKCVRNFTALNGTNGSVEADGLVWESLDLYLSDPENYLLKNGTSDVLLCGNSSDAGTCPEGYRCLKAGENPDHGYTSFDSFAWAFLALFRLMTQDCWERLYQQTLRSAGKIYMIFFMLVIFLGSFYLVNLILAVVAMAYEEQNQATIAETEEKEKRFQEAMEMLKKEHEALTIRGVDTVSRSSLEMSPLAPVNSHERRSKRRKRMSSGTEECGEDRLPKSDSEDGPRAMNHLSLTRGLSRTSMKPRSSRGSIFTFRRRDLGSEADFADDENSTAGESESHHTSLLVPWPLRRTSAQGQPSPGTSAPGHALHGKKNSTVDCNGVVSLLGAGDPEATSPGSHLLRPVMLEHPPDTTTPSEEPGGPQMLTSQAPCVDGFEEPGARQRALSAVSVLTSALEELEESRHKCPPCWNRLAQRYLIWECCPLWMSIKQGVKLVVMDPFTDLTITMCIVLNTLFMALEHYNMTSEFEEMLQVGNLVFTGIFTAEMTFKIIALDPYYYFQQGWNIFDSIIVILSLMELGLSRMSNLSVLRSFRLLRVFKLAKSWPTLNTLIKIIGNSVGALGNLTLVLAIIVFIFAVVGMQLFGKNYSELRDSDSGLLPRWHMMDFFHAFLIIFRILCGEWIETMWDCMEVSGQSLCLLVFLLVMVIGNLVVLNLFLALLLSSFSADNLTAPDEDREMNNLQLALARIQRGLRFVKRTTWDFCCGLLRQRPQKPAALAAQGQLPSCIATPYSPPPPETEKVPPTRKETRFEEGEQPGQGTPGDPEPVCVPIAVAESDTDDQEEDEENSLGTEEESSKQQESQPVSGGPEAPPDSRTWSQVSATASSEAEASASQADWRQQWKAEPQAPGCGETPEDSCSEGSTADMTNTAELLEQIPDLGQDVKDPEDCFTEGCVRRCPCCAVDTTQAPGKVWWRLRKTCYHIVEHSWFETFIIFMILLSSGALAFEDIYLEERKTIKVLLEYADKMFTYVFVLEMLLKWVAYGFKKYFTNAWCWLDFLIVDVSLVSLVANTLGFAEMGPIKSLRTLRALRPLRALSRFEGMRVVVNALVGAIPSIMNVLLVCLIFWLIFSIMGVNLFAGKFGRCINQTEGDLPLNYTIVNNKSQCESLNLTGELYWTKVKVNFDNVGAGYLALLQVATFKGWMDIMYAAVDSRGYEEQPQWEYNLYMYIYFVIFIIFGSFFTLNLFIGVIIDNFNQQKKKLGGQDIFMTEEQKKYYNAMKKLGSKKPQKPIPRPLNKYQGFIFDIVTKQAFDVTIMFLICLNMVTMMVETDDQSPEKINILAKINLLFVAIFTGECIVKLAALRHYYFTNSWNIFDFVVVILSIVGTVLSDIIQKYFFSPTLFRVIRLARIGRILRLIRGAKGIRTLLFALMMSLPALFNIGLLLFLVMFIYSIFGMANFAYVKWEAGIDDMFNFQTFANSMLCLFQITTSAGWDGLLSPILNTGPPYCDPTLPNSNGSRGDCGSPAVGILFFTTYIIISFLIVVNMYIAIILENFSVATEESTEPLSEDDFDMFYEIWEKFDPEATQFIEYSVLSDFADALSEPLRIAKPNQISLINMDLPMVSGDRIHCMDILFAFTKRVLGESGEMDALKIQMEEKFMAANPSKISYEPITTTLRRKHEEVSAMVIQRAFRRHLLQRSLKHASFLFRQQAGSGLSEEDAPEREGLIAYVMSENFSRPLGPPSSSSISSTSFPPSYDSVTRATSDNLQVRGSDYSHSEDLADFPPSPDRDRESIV
Outline: as §1

[7] = biological target: T5, Cav2.2 (Homo sapiens, UniProt Q00975); test: cell-based; details: 100% = no change, <100% = inhibition
T5 construct: host or cells: HEK293 or CHO
Outline: as §1

[8] = biological target: T6, Cav2.1 (Homo sapiens, UniProt O00555); test: cell-based; details: 100% = no change, <100% = inhibition
T6 construct: host or cells: HEK293 or CHO
Outline: as §1

[9] = biological target: T7, Kv2.1 (Homo sapiens, UniProt Q14721); test: cell-based; details: 100% = no change, <100% = inhibition
T7 construct: host or cells: HEK293 or CHO
Outline: as §1

[10] = biological target: T8, NR2B (Homo sapiens, UniProt Q13224); test: Ion channel panel (IonWorks Barracuda): NR2B; type: cell-based; details: 100% = no change, <100% = inhibition
T8 construct: host or cells: HEK293 or CHO
Outline: as §1

[11] = biological target: T9, 5HT3a (Homo sapiens, UniProt P46098); test: Ion channel panel (IonWorks Barracuda): 5HT3a; type: cell-based
T9 construct: host or cells: HEK293 or CHO
T9 sequence (P46098 whole entry, looked up): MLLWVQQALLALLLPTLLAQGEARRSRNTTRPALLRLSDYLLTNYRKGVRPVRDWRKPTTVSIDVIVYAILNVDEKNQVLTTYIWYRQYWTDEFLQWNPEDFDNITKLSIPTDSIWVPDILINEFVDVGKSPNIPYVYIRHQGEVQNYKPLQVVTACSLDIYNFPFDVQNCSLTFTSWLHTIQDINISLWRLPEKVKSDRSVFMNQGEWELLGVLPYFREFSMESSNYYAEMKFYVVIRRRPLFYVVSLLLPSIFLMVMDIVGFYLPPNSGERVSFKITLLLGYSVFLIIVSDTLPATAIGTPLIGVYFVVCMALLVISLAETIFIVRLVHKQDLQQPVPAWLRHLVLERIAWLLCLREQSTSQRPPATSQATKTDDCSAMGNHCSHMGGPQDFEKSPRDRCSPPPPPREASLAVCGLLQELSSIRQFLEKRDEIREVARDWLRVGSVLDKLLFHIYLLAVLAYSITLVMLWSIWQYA
Outline: as §1

[12] = biological target: T10, α3β4 (Homo sapiens, UniProt P30926+P32297); test: Ion channel panel (IonWorks Barracuda): α3β4; type: cell-based; details: 100% = no change, <100% = inhibition
T10 construct: host or cells: HEK293 or CHO
Outline: as §1

[13] = biological target: T11, Nav1.7 (Homo sapiens, UniProt Q15858); test: cell-based; type: cell-based; details: 100% = no change; for Activity of Nav1.7 with peptide, expressed as a percentage of the reference compound: peptide at 0.2 μM; for Activity of Nav1.7 with peptide (percentage of the reference compound): peptide at 20 μM
T11 construct: host or cells: HEK293 or CHO
T11 sequence (Q15858 whole entry): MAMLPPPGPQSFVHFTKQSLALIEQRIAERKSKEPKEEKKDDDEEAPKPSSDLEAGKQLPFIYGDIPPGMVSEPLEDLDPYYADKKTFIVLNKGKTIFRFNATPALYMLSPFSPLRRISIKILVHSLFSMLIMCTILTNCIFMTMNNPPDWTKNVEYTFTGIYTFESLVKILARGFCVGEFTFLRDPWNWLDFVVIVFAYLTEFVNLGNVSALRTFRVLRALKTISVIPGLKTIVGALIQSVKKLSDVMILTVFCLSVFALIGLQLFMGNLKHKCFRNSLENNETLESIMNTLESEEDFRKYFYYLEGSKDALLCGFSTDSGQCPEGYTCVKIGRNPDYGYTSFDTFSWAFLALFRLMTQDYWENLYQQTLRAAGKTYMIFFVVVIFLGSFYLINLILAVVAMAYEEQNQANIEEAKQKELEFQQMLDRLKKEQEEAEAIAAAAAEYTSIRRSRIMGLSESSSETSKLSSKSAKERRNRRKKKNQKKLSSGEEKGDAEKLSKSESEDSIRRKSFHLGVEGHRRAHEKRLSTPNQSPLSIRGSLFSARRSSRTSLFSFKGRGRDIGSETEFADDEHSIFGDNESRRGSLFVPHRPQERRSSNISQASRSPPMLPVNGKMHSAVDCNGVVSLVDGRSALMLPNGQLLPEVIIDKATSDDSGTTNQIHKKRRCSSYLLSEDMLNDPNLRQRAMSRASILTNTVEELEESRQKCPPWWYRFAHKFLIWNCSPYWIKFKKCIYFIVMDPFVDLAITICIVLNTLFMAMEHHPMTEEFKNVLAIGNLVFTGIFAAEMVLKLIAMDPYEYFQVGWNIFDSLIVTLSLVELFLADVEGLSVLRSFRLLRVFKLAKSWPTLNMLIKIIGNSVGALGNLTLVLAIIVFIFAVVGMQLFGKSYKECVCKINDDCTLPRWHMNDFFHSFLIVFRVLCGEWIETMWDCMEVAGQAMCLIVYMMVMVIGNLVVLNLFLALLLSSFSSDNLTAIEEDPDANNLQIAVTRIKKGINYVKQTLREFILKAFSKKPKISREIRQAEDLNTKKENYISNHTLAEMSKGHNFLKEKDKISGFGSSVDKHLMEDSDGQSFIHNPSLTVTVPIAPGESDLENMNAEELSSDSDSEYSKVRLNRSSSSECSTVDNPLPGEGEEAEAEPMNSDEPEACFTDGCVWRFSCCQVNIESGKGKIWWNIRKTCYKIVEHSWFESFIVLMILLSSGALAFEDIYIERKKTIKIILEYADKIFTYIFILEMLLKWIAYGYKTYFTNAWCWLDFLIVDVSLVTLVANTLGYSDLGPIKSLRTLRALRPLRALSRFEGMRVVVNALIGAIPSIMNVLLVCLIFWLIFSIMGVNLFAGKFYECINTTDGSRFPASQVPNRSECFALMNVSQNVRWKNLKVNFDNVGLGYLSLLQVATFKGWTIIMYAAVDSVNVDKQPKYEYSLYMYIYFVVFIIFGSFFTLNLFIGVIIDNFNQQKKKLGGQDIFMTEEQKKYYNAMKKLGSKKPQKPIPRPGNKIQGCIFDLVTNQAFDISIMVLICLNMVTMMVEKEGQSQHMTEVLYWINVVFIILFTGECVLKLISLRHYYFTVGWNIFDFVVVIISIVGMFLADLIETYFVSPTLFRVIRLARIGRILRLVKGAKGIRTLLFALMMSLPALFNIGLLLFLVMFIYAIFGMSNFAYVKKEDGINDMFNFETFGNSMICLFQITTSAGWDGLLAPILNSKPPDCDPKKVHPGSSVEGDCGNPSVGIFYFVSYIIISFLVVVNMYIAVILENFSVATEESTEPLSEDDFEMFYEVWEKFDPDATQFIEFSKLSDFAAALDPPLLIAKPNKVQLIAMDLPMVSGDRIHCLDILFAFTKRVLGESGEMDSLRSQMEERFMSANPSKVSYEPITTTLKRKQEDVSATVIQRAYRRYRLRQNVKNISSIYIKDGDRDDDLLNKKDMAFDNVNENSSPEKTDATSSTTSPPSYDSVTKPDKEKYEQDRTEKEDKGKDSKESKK

[14] = biological target: T12, Kir2.1 (Homo sapiens, UniProt P63252); test: Ion channel panel (IonWorks Barracuda): Kir2.1; type: cell-based; details: 100% = no change, <100% = inhibition
T12 construct: host or cells: HEK293 or CHO
Outline: as §1

[15] = test system: GABA; test: Ion channel panel (IonWorks Barracuda): GABA; type: cell-based; details: 100% = no change, <100% = inhibition
Outline: as §1

[16] = biological target: T13, Kv1.3 (Homo sapiens, UniProt P22001); test: cell-based; type: cell-based; details: 100% = no change, <100% = inhibition
T13 construct: host or cells: HEK293 or CHO
T13 sequence (P22001 whole entry): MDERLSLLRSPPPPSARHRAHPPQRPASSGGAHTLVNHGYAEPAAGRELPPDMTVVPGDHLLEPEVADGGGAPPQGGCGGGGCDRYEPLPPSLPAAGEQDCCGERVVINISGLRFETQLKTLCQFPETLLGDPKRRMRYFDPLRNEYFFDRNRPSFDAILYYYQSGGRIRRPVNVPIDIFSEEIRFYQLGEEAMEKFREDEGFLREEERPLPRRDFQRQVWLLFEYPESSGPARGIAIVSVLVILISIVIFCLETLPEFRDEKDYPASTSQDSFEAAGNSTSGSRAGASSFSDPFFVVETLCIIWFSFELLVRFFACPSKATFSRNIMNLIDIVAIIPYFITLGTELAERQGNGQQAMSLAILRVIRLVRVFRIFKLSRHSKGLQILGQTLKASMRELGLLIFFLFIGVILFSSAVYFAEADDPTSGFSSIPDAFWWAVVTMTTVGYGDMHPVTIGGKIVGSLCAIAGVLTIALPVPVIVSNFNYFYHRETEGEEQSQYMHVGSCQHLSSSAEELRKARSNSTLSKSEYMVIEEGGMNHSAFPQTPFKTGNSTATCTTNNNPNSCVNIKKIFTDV
Outline: as §1

[17] = biological target: T14, Kv1.1 (Homo sapiens, UniProt Q09470); test: cell-based; type: cell-based; details: 100% = no change, <100% = inhibition
T14 construct: host or cells: HEK293 or CHO
Outline: as §1

[18] = biological target: T15, Kv1.2 (Homo sapiens, UniProt P16389); test: cell-based; type: cell-based; details: 100% = no change, <100% = inhibition
T15 construct: host or cells: HEK293 or CHO
T15 sequence (P16389 whole entry): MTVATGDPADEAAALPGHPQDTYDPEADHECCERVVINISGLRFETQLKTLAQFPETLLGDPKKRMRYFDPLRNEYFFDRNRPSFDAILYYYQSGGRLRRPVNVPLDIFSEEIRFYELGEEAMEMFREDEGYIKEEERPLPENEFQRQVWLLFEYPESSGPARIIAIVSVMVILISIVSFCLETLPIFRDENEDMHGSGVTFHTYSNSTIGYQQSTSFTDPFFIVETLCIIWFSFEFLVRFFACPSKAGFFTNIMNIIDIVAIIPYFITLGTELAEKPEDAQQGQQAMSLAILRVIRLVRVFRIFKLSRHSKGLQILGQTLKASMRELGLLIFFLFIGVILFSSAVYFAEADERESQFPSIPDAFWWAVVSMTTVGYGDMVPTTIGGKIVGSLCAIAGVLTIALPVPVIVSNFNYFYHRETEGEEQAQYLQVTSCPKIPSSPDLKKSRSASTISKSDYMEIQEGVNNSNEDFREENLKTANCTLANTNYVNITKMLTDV
Outline: as §1

[19] = first of two Nav1.5 columns (probably TP1)
[20] = second of two Nav1.5 columns (probably TP2)
[21] = first of two Nav1.7 columns (probably TP1)
[22] = second of two Nav1.7 columns (probably TP2)

“16 (GSQFCGTNGKPCVNGQCCGALRCVVTYHYADGVCLKMNP) [compound 16]” was tested, and the “Activity of a4b2 with peptide, expressed as a percentage of the reference compound” value ([1]; peptide at 0.2 μM) was 83%, the “Activity of a4b2 with peptide (percentage of the reference compound)” value ([1]; peptide at 20 μM) was 72% and the “Activity of TRPV1 with peptide, expressed as a percentage of the reference compound” value ([2]; peptide at 0.2 μM) was 107%. The “Activity of TRPV1 with peptide (percentage of the reference compound)” value ([2]; peptide at 20 μM) was 88%, the “Activity of NR2A with peptide, expressed as a percentage of the reference compound” value ([3]; peptide at 0.2 μM) was 101% and the “Activity of NR2A with peptide (percentage of the reference compound)” value ([3]; peptide at 20 μM) was 95%. For the same substance, the “Activity of TRPA1 with peptide, expressed as a percentage of the reference compound” value ([4]; peptide at 0.2 μM) was 99%, the “Activity of TRPA1 with peptide (percentage of the reference compound)” value ([4]; peptide at 20 μM) was 116% and the “Activity of hERG with peptide, expressed as a percentage of the reference compound” value ([5]; peptide at 0.2 μM) was 74%. The “Activity of hERG with peptide (percentage of the reference compound)” value ([5]; peptide at 20 μM) was 71%, the “Activity of Nav1.5 with peptide, expressed as a percentage of the reference compound” value [6, 19] was 107% and the “Activity of Nav1.5 with peptide, expressed as a percentage of the reference compound” value [6, 20] was 104%. For the same substance, the “Activity of Nav1.5 with peptide (percentage of the reference compound)” value [6, 19] was 93%, the “Activity of Nav1.5 with peptide (percentage of the reference compound)” value [6, 20] was 93% and the “Activity of Cav2.2 with peptide, expressed as a percentage of the reference compound” value ([7]; peptide at 0.2 μM) was 124%. For the same substance, the “Activity of Cav2.2 with peptide (percentage of the reference compound)” value ([7]; peptide at 20 μM) was 104%, the “Activity of Cav2.1 with peptide, expressed as a percentage of the reference compound” value ([8]; peptide at 0.2 μM) was 113% and the “Activity of Cav2.1 with peptide (percentage of the reference compound)” value ([8]; peptide at 20 μM) was 92%. For the same substance, the “Activity of Kv2.1 with peptide, expressed as a percentage of the reference compound” value ([9]; peptide at 0.2 μM) was 114%, the “Activity of Kv2.1 with peptide (percentage of the reference compound)” value ([9]; peptide at 20 μM) was 98% and the “Activity of NR2B with peptide, expressed as a percentage of the reference compound” value ([10]; peptide at 0.2 μM) was 88%. For the same substance, the “Activity of NR2B with peptide (percentage of the reference compound)” value ([10]; peptide at 20 μM) was 91%, the “Activity of 5HT3a with peptide (percentage of the reference compound)” value [11] was 103% and the “Activity of 5HT3a with peptide, expressed as a percentage of the reference compound” value [11] was 114%. For the same substance, the “Activity of a3b4 with peptide, expressed as a percentage of the reference compound” value ([12]; peptide at 0.2 μM) was 100%, the “Activity of a3b4 with peptide (percentage of the reference compound)” value ([12]; peptide at 20 μM) was 95% and the “Activity of Nav1.7 with peptide, expressed as a percentage of the reference compound” value [13, 21] was 86%. The “Activity of Nav1.7 with peptide, expressed as a percentage of the reference compound” value [13, 22] was 91%, the “Activity of Nav1.7 with peptide (percentage of the reference compound)” value [13, 21] was 66% and the “Activity of Nav1.7 with peptide (percentage of the reference compound)” value [13, 22] was 43%. For the same substance, the “Activity of Kir2.1 with peptide, expressed as a percentage of the reference compound” value ([14]; peptide at 0.2 μM) was 98%, the “Activity of Kir2.1 with peptide (percentage of the reference compound)” value ([14]; peptide at 20 μM) was 92% and the “Activity of GABA with peptide, expressed as a percentage of the reference compound” value ([15]; peptide at 0.2 μM) was 102%. For the same substance, the “Activity of GABA with peptide (percentage of the reference compound)” value ([15]; peptide at 20 μM) was 109%, the “Activity of Kv1.3 with peptide, expressed as a percentage of the reference compound” value ([16]; peptide at 0.2 μM) was 92% and the “Activity of Kv1.3 with peptide (percentage of the reference compound)” value ([16]; peptide at 20 μM) was 92%. The “Activity of Kv1.1 with peptide, expressed as a percentage of the reference compound” value ([17]; peptide at 0.2 μM) was 84%, the “Activity of Kv1.1 with peptide (percentage of the reference compound)” value ([17]; peptide at 20 μM) was 67% and the “Activity of Kv1.2 with peptide, expressed as a percentage of the reference compound” value ([18]; peptide at 0.2 μM) was 78%. For the same substance, the “Activity of Kv1.2 with peptide (percentage of the reference compound)” value ([18]; peptide at 20 μM) was 61%.
